# Laboratory results taken from patent publication US20120100561.
# T1: phosphoinositide-dependent kinase-1 (PDK1), O15530
# T1 chain: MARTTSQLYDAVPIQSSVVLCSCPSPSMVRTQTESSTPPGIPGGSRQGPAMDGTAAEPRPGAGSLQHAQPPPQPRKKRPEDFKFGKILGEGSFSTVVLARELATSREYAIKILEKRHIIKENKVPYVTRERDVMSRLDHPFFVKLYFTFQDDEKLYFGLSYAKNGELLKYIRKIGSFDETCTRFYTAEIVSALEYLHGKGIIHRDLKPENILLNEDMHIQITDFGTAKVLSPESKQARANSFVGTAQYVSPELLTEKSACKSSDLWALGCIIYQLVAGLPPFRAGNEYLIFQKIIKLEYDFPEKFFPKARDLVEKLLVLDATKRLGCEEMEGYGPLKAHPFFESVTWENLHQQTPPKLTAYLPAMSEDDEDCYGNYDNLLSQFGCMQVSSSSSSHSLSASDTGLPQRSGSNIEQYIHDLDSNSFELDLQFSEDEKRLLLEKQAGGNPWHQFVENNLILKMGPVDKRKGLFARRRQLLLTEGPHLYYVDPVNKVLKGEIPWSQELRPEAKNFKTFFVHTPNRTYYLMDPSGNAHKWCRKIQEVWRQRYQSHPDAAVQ
# B1: Flag-PKN3 wt (N-terminal Flag epitope-tagged full-length kinase active human PKN3) (protein)
# chain: DYKDDDKMEEGAPRQPGPSQWPPEDEKEVIRRAIQKELKIKEGVENLRRVATDRRHLGHVQQLLRSSNRRLEQLHGELRELHARILLPGPGPGPAEPVASGPRPWAEQLRARHLEALRRQLHVELKVKQGAENMTHTCASGTPKERKLLAAAQQMLRDSQLKVALLRMKISSLEASGSPEPGPELLAEELQHRLHVEAAVAEGAKNVVKLLSSRRTQDRKALAEAQAQLQESSQKLDLLRLALEQLLEQLPPAHPLRSRVTRELRAAVPGYPQPSGTPVKPTALTGTLQVRLLGCEQLLTAVPGRSPAAALASSPSEGWLRTKAKHQRGRGELASEVLAVLKVDNRVVGQTGWGQVAEQSWDQTFVIPLERARELEIGVHWRDWRQLCGVAFLRLEDFLDNACHQLSLSLVPQGLLFAQVTFCDPVIERRPRLQRQERIFSKRRGQDFLRASQMNLGMAAWGRLVMNLLPPCSSPSTISPPKGCPRTPTTLREASDPATPSNFLPKKTPLGEEMTPPPKPPRLYLPQEPTSEETPRTKRPHMEPRTRRGPSPPASPTRKPPRLQDFRCLAVLGRGHFGKVLLVQFKGTGKYYAIKALKKQEVLSRDEIESLYCEKRILEAVGCTGHPFLLSLLACFQTSSHACFVTEFVPGGDLMMQIHEDVFPEPQARFYVACVVLGLQFLHEKKIIYRDLKLDNLLLDAQGFLKIADFGLCKEGIGFGDRTSTFCGTPEFLAPEVLTQEAYTRAVDWWGLGVLLYEMLVGECPFPGDTEEEVFDCIVNMDAPYPGFLSVQGLEFIQKLLQKCPEKRLGAGEQDAEEIKVQPFFRTTNWQALLARTIQPPFVPTLCGPADLRYFEGEFTGLPPALTPPAPHSLLTARQQAAFRDFDFVSERFLEP
# Key:
# [1] = biological target: T1, phosphoinositide-dependent kinase-1 …
# [2] = biological target: Myc-RhoC (N-terminal Myc epitope-tagged full-length human RhoC)
# Sequence of Myc-RhoC (N-terminal Myc epitope-tagged full-length human RhoC) (chain, as listed by the source): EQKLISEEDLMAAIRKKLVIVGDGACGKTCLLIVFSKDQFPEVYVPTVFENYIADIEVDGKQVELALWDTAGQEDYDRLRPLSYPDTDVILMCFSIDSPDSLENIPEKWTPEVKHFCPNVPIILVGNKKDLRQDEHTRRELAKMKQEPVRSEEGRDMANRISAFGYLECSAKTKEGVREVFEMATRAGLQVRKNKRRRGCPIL
protein,measurement,setting,value
B1,"kinase activity of the anti-Flag immunoprecipitate toward the PKN3 substrate (GSK3α-derived fragment, SEQ ID NO:1), Western blot",[1],"the kinase activity is greatest for the PPRC complex than either PKN3 alone, or PKN3 and RhoC combined"
same,"kinase activity of the anti-Flag immunoprecipitate toward the PKN3 substrate (GSK3α-derived fragment, SEQ ID NO:1), Western blot",[2],"the kinase activity is greatest for the PPRC complex than either PKN3 alone, or PKN3 and RhoC combined"
